# Target: F-actin (actin filaments from rabbit skeletal muscle actin) (rabbit), P68135
# Experiment: single-molecule TIRF microscopy
# Conditions: remark: other sources report otherwise
binder,measurement,value
"utrophin N-terminal fragment (amino acids 1 to 261)-sfGFP-6xHis, P46939 1-261 (domain or fragment, here or on the partner: 30% DyLight-650 NHS ester-labelled and optionally 5% biotinylated (EZ-Link NHS-PEG4-biotin) actin) MAKYGEHEASPDNGQNEFSDIIKSRSDEHNDVQKKTFTKWINARFSKSGKPPINDMFTDLKDGRKLLDLLEGLTGTSLPKERGSTRVHALNNVNRVLQVLHQNNVELVNIGGTDIVDGNHKLTLGLLWSIILHWQVKDVMKDVMSDLQQTNSEKILLSWVRQTTRPYSQVNVLNFTTSWTDGLAFNAVLHRHKPDLFSWDKVVKMSPIERLEHAFSKAQTYLGIEKLLDPEDVAVQLPDKKSIIMYLTSLFEVLPQQVTID",fold landing frequency on F-actin against mN2G^SR,20 fold

# Source: paper PMC11844729
